From US6525022B1, “Receptor specific atrial natriuretic peptides” (Genentech, Inc., priority 1993, dated 2003) come the findings set out here.

Read-outs that look alike come from different tables or passages of the source. Where a SMILES comes first, the peptide text is derived from it. Bridges are numbered along the chain shown (N, C = ends). Primed or numbered codes have the meaning given here. Where no end group is shown, it is not given here. [ ]: non-standard residue; d: D form. Phg′ = phenylglycine, D or L; Mpa = O=C(O)CCS

One series has as its target T1, hNPR-C (Homo sapiens, UniProt P17342).
T1 sequence (P17342 27-541): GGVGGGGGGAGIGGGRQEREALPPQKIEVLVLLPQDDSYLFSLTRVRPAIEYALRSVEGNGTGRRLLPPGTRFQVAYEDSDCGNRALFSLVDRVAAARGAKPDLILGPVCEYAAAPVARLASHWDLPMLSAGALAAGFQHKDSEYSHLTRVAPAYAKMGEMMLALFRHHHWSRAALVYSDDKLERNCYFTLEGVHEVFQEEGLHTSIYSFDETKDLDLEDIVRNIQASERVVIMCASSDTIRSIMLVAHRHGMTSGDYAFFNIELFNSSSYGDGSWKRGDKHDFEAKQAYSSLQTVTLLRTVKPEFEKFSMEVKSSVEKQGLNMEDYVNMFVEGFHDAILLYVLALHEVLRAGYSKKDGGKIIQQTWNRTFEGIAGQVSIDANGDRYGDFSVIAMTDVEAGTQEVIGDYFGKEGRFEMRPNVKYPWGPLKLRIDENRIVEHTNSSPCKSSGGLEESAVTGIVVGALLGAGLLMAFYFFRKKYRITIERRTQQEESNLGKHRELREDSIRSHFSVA
Kind of series: Competition binding to hNPR-C (Table I, FIG. 5).

The target of a further series is T2, hNPR-A (Homo sapiens, UniProt P16066).
T2 sequence (P16066 33-1061): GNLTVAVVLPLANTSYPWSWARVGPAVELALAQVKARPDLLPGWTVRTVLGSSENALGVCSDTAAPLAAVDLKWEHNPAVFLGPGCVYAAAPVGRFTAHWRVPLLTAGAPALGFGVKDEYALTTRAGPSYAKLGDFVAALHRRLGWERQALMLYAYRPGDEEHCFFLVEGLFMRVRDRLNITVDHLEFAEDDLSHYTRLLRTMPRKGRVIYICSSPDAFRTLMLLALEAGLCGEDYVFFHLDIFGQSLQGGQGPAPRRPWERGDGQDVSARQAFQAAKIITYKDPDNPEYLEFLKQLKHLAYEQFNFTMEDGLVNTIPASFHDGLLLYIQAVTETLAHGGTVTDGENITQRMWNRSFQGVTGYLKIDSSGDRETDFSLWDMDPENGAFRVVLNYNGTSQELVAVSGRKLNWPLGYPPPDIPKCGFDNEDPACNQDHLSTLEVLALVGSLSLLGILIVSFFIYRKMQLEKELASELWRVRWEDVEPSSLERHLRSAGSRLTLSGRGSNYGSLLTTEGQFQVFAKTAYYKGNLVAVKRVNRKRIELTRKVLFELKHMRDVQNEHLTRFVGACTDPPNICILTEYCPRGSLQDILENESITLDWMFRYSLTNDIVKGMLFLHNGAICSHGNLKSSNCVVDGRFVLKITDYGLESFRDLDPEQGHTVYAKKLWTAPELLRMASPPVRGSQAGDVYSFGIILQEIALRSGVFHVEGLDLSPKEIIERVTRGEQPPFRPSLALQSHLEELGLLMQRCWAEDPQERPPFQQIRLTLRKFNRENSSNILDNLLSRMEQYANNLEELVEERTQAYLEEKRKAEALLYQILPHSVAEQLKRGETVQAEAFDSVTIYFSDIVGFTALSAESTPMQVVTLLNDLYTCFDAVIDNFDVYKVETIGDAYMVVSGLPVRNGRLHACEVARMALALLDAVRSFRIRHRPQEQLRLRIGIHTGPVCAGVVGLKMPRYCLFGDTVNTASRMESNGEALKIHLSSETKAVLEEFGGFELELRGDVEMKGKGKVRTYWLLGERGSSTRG
The series can be described thus: Competition binding to hNPR-A (Table I, FIG. 5).

Series [1] deals with human NEP (hNEP), endopeptidase 24.11 (Homo sapiens, UniProt P08473). The series can be described thus: Degradation of ANF variants by human NEP, half-life by HPLC. The following applies: isolated human NEP (endopeptidase 24.11) in HEPES buffer, Half-Life (min.), FIG. 7: ANF variants 32 nM/ml, NEP 0.45 μg/ml.
Experimental: The half-life of various ANF variants was measured according to the following procedure.
ANF Solution: An accurately weighed amount of ANF or variant thereof was diluted with HEPES buffer (5 ml of 1 M HEPES Buffer and 0.1 ml of Tween 20 diluted to a 100 ml volume with DI water) to make a 0.5 mg/ml solution.
hNEP/HEPES Solution: 7.5 μl of a 1 mg/ml solution of hNEP (see U.S. Pat. No. 4,960,700) is dissolved in 992.5 μl of HEPES buffer (as described above) and vortex mixed. The resulting mixture is stored in a silylated Eppendorf tube and periodically checked for activity against an ANF peptide standard.
Assay conditions: 150 μl of an ANF solution in the HEPES buffer is diluted with 820 μl HEPES buffer and vortex mixed (1 sec). Careful note of the time is taken as 30 μl of the hNEP/HEPES solution is added and the solution is vortex mixed for 1 sec. and analyzed by periodic removal of constant volume aliquots by the HPLC autosampler. A 2.5 cm×50 cm, C-18 reversed-phase column (15 micron, 300 Å]) was used and elution was achieved by using a shallow gradient of increasing acetonitrile. The elution conditions consisted of a 10% to 50% acetonitrile (containing 0.1% TFA) gradient at 0.5% min.^−1. The aqueous phase was 0.1% TFA in water. The peak area of the ANP peptide is recorded at these periodic intervals and a half-life is determined from these values.
In series [2] the target is human neutral endopeptidase 24.11 (human) (UniProt P08473). Kind of series: cell-based or functional assay.
In series [3] the target is T3, human neutral endopeptidase 24.11 (human), P08473.
T3 chain: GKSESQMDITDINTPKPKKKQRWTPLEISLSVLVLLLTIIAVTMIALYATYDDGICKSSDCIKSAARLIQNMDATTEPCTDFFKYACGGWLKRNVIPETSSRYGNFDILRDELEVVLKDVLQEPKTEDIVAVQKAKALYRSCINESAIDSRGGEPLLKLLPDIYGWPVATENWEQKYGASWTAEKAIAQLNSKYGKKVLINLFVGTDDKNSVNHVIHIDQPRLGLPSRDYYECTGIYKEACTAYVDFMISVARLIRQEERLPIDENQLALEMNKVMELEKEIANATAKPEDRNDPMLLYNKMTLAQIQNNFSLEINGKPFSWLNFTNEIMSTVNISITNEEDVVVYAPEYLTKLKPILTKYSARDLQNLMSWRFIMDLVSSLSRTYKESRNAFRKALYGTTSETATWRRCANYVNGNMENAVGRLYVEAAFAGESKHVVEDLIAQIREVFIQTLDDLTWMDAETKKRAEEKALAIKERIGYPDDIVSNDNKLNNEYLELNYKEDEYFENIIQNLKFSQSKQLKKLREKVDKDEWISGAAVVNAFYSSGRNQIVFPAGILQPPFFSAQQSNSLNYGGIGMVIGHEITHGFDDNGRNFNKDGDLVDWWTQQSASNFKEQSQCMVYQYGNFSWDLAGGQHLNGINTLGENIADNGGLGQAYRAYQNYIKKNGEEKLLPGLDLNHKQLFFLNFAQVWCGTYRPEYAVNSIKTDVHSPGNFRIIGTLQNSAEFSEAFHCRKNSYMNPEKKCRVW
The series can be described thus: cell-based or functional assay.

Series [4] has as its target T4, human natriuretic peptide clearance receptor-C (human), P17342.
T4 chain: T1 sequence (P17342 27-541)
The series can be described thus: competition binding, Table I; tracer and receptor format not given.

For series [5], the target named is T5, human natriuretic peptide clearance receptor-C (human, UniProt P17342 27-541).
T5 construct: whole, on cells; also called hNPR-C; human NPR-C
T5 sequence (looked up): T1 sequence (P17342 27-541)
The series is described as above.

For series [6], the target named is T6, human natriuretic peptide receptor-A (human, UniProt P16066 33-1061).
T6 construct: whole, on cells; also called hNPR-A; human NPR-A
T6 sequence (looked up): T2 sequence (P16066 33-1061)
The description is as above.

For series [7], the target named is T7, human neutral endopeptidase 24.11 (human, UniProt P08473 2-750, limits assumed). Kind of series: cell-based or functional assay.
Series [8] concerns the target T7, human neutral endopeptidase 24.11. Kind of series: cell-based or functional assay. This is another data set of the same source.
In series [9] the target is T4, human natriuretic peptide clearance …. The series can be described thus: competition binding, membranes. The following applies: chains peptide; modification not given.
In series [10] the target is T8, human natriuretic peptide receptor-A (human), P16066.
T8 chain: T2 sequence (P16066 33-1061)
Kind of series: competition binding vs 125I-rat ANP, membranes. The conditions noted are these: chains peptide; modification not given.

Sequence of human NEP (hNEP), endopeptidase 24.11 (P08473 whole entry): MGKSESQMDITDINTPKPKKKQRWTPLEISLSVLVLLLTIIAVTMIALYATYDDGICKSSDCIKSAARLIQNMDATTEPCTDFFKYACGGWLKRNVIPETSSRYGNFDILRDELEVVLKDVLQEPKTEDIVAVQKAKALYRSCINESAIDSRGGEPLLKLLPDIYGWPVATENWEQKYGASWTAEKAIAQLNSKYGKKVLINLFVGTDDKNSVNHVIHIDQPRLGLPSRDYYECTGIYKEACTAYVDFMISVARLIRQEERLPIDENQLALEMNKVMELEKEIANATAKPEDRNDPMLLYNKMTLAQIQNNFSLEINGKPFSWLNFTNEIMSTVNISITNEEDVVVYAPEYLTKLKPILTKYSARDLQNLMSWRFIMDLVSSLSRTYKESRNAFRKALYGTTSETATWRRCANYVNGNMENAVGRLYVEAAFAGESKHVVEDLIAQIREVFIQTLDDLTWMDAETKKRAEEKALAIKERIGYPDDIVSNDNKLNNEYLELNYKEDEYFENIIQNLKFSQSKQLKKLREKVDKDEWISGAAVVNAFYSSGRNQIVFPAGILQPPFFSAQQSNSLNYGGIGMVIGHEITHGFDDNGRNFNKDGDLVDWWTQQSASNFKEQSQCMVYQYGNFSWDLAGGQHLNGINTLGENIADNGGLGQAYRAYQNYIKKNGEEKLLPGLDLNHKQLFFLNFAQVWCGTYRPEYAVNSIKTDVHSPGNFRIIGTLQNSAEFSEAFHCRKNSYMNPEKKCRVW

“hANF(1-28) G16R (SLRRSSCFGGRMDRIRAQSGLGCNSFRY) [hANF with the single substitution of arginine for glycine at position 16]”: in the series with hNPR-C (relative to wild type), the “Reduction of NPR-C affinity” value is recorded as “about 150 fold”. Moreover, the “Effect of substitution on NPR-A binding” value in the series with hNPR-A (relative to wild type) is on record as “negligible effect”.
For `CC[C@H](C)[C@@H]1NC(=O)[C@H](CCCNC(=N)N)NC(=O)[C@H](CC(=O)O)NC(=O)[C@H](CCSC)NC(=O)[C@H](CO)NC(=O)[C@H](CCCCN)NC(=O)CNC(=O)[C@H](Cc2ccccc2)NC(=O)[C@@H](NC(=O)[C@H](CO)NC(=O)[C@H](CO)NC(=O)[C@H](CCCNC(=N)N)NC(=O)[C@H](CCCNC(=N)N)NC(=O)[C@H](CC(C)C)NC(=O)[C@@H](N)CO)CSSC[C@@H](C(=O)N[C@@H](CC(N)=O)C(=O)N[C@@H](CO)C(=O)N[C@@H](Cc2ccccc2)C(=O)N[C@@H](CCCNC(=N)N)C(=O)N[C@@H](Cc2ccc(O)cc2)C(=O)O)NC(=O)CNC(=O)[C@H](CC(C)C)NC(=O)CNC(=O)[C@H](CO)NC(=O)[C@H](CCC(N)=O)NC(=O)[C@H](C)NC(=O)CNC1=O` [ANF 60] (H-SLRRSSCFGKSMDRIGAQSGLGCNSFRY-OH; disulfide 7-23; C-terminus assumed), the IC50 at hNPR-C (read-out: Binding Affinity IC50(pM) hNPR-C) was 5980 pM; on hNPR-A (read-out: Binding Affinity IC50(pM) hNPR-A) it was 112 pM. Moreover, in [1], the half-life at 32 nM/ml amounted to 5.07 h.
Regarding ANF 28 (peptide), the Half-Life in series [2] is 9.52 h.
On the same count and under the same terms, the value for ANF 40 (peptide) was 9.95 h.
For SLRRSSCFGGRMDRIGAQSGLGCNSFRY (modifications not checked) [hANF(1-28), wild-type human atrial natriuretic factor], the Half-Life in series [3] worked out at 2.27 h.
Molecule SLRRSSCFTGSIDRIRAQSGLGCNSFRY (modifications not checked) [ANF 27] gave an IC50 in series [4] of 1000 nM. Also, the Half-Life in series [3] worked out at 5.57 h.
Take SLRRSSC[Phg′]TGSIDRIRAQSGLGCNSFRY (disulfide 7-23; also: Phg configuration D or L not given here) [ANF 100-1]: the IC50 in [5] amounted to 3230 nM; in series [6] it was 0.187 nM.
In the case of [Mpa]F[dA]GDIDRIRAQSGLGCNSFRY (ends and bridges not checked) [ANF 92], the “Half-Life” value in series [7] is 1.77 h.
With [Mpa]F[dT]GSIDRIRAQSGLGCNSFRY (disulfide 1-17) [ANF 80], the IC50 is 739 nM in series [5] and 0.423 nM in [6].
Turning to TAPRSLRRSSCFGGRIDRIRAQSGLGCNSFRY (disulfide 11-27) [ANF 23], the “Half-Life” value in series [8] worked out at 12.3 h.
As to TAPRSLRRSSCFGGRMDRIGAQSGLGCNSFRY [urodilatin], the results for the “Half-Life” value in series [7] and in series [8] were 27.1 h and 31 h, respectively.

B1: ANF 24 (peptide)
peptide: SLRRSSCFGGRIDRIRAQSGLGCNSFRY
modifications: disulfide 7-23
notes: Synthetic; Cys7-Cys23 disulfide; also called hANF(1-28) M12I, G16R
As for B1, in series [5], the IC50 was 5.64 nM. Besides, the “Half-Life” value in series [8] came to 10 h.

B2: ANF 50 (peptide)
peptide: SLRRSSCFTGSMDRIGAQSGLGCNSFRY
modifications: disulfide 7-23
notes: Cys7-Cys23 disulfide; also called hANF(1-28) G9T, R11S
Consider B2, for which the figures for the IC50 in series [5] and in [6] were 251 nM and 0.57 nM, respectively. The “Half-Life” value in [8] stood at 1.55 h.
SLRRSSCFGGRIDSIRAQSGLGCNSFRY (disulfide 7-23, also called hANF(1-28) M12I, R14S, G16R) [ANF 25]: the “Half-Life” value in series [7] stood at 3.32 h. In addition, the IC50 in series [5] turned out to be 3.31 nM; in series [6] it was 0.056 nM.
As for SLRRSSCFGGRIDRIREASGLGCNSFRY [ANF 99], the half-maximal inhibitory concentration (IC50) in series [9] was found to be 121 nM; in series [10] it was 0.145 nM.
Turning to SLRRSSCFGGRIDRIGAQSGLGCNSFRY [rat ANP], the IC50 was 0.145 nM in series [9] and 0.181 nM in series [10]. For the same molecule, the Half-Life in [3] amounted to 2.75 h.
The molecule SLRRSSCFAGSIDRIRAQSGLGCNSFRY (modifications not checked) [ANF 78] had an IC50 in series [4] of 8.64 nM.
For SLRRSSC[dA]FTGSIDRIRAQSGLGCNSFRY (disulfide 7-24) [ANF 75], the IC50 in [5] turned out to be 2000 nM; in [6], 2.08 nM.

B3: ANF 81 (peptide)
peptide: [Mpa]F[dA]GSIDRIRAQSGLGCNSFRY
modifications: disulfide 1-17; not fully specified; printed as Mpa-Phe-(D-Ala)-Gly-Ser-Ile-Asp-Arg-Ile-Arg-Ala-Gln-Ser-Gly-Leu-Gly-Cys-Asn-Ser-Phe-Arg-Tyr
Consider B3, for which the IC50 is 3860 nM in series [5] and 1.4 nM in series [6].

B4: ANF 90 (peptide)
peptide: SLRRSSCF[dA]GDIDRIRAQSGLGCNSFRY
modifications: disulfide 7-23
notes: Cys7-Cys23 disulfide; also called hANF(1-28) G9(d-Ala), R11D, M12I, G16R
Turning to B4, the IC50 in series [5] is 6140 nM; in [6] it was 1.2 nM.

As usually defined, the IC50 is the concentration needed to halve the response being measured. As usually defined, the half-life is the time in which the quantity being followed falls by half. The low end stands for fast loss, the high end for slow loss.
